# Assay results from publication PMC2749211.
# Biological target: SMU.440, hypothetical protein from Streptococcus mutans (Streptococcus mutans)
# Assay: SEC; gel filtration on HiLoad Superdex 75, 20 mM Tris-HCl pH 7.5, 150 mM NaCl
substance,measurement,value
"SMU.440, hypothetical protein from Streptococcus mutans (natural protein)",stoichiometry N,2
